Measurements: article PMC9984387, “The dynamic nature of netrin-1 and the structural basis for glycosaminoglycan fragment-induced filament formation” (Nature Communications, 2023)
pKd: −log10 of the molar value.

Target: His-tagged NET1ΔC (coated in ELISA) (not stated (chicken or mouse cDNA cloned))
Experiment: ELISA; NET1ΔC coated; serial dilutions of strep-tagged HSPGs (0.5–500 nM) in solution; detection with strep-HRP; apparent constants

glypican-3 (AF185614 aa 25-557 R357A) (from UniProt Q8CFZ4 25-557) (domain or fragment)
pKd: 7.70 to 8.00
